{
  "source": "patent US20200079833A1",
  "about": "(AstraZeneca / MedImmune, published 2020)",
  "experiment_in_all_cases": "cell-based or functional assay",
  "key": {"GLP-1 receptor": {"target": "GLP-1 receptor (human, UniProt P43220 24-463)"}, "glucagon receptor": {"target": "glucagon receptor (human, UniProt P47871 26-477)", "sequence (P47871 26-477)": "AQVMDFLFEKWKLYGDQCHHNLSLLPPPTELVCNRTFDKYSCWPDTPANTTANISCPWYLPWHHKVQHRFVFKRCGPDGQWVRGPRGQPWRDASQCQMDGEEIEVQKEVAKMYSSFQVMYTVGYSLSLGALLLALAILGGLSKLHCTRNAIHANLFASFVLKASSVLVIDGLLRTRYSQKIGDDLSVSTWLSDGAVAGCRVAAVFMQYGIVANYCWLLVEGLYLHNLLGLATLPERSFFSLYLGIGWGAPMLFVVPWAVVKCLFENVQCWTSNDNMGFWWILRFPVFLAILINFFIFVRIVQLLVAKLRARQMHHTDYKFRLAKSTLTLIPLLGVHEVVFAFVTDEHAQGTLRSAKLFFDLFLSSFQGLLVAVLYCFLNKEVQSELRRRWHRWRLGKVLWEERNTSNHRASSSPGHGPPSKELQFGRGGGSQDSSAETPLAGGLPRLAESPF"}, "[1]": {"target": "T1, glucose-dependent insulinotropic peptide (gastric inhibitory polypeptide) receptor (human, UniProt P48546 22-466)", "T1 sequence (looked up)": "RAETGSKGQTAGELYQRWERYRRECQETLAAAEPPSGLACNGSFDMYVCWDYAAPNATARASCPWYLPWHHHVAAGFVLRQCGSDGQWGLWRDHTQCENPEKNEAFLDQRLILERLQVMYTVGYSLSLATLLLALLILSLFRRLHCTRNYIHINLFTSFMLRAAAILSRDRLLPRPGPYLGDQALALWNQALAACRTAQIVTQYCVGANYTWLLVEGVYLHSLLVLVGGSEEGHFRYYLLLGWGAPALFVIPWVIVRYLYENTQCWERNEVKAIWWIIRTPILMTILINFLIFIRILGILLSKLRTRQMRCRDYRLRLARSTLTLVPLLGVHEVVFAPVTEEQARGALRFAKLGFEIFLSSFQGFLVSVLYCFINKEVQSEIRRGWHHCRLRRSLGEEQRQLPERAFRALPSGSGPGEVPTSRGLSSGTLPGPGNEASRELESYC"}},
  "note": "Starred links: 1 amine or outer side, 2 acyl side, 3 side chain; linkers in the order of their positions; H or OH if unused. Non-standard residues stand in square brackets, D forms with d. Groups on a side chain read outwards from the residue. Primed or numbered codes have the meaning given here. No end group written: not given here. *: point of attachment. γGlu = O=C(O)[C@H](CCC(=O)[*:2])N[*:1]; Stearoyl = CCCCCCCCCCCCCCCCCC(=O)*; αMeF = C[C@](N)(Cc1ccccc1)C(=O)O; αMeK = C[C@](N)(CCCCN)C(=O)O; αMeS = C[C@](N)(CO)C(=O)O; PEG2′ = not defined here; Aib = CC(C)(N)C(=O)O",
  "data": [
    {"binder": "H[Aib]EGS[αMeF]TSDVSS[αMeF]LEGEAAK([PEG2′-PEG2′-γGlu-Stearoyl])E[αMeF]IA[αMeF]VV[αMeK]GG-NH2", "note": "[SEQ ID NO 46]", "values": [
      {"measurement": "Primary assay EC50 (cAMP), Mean pM GLP-1R", "setting": "GLP-1 receptor", "value": 1560, "unit": "pM"},
      {"measurement": "Primary assay EC50 (cAMP), n1", "setting": "GLP-1 receptor", "value": 0.92, "unit": "nM"},
      {"measurement": "Primary assay EC50 (cAMP), n2", "setting": "GLP-1 receptor", "value": 2.2, "unit": "nM"},
      {"measurement": "Primary assay EC50 (cAMP), n1", "setting": "glucagon receptor", "value": 26, "unit": "nM"},
      {"measurement": "Primary assay EC50 (cAMP), n2", "setting": "glucagon receptor", "value": 26, "unit": "nM"},
      {"measurement": "Primary assay EC50 (cAMP), n1", "setting": "[1]", "value": 26, "unit": "nM"},
      {"measurement": "Primary assay EC50 (cAMP), n2", "setting": "[1]", "value": 26, "unit": "nM"}
    ]},
    {"binder": "H[Aib]EGS[αMeF]TSEVSS[αMeF]LEGEAA[αMeK]E[αMeF]IA[αMeF]VV[αMeK]GG-NH2 (N-terminus assumed; SMILES CC[C@H](C)[C@H](NC(=O)[C@](C)(Cc1ccccc1)NC(=O)[C@H](CCC(=O)O)NC(=O)[C@](C)(CCCCN)NC(=O)[C@H](C)NC(=O)[C@H](C)NC(=O)[C@H](CCC(=O)O)NC(=O)CNC(=O)[C@H](CCC(=O)O)NC(=O)[C@H](CC(C)C)NC(=O)[C@](C)(Cc1ccccc1)NC(=O)[C@H](CO)NC(=O)[C@H](CO)NC(=O)[C@@H](NC(=O)[C@H](CCC(=O)O)NC(=O)[C@H](CO)NC(=O)[C@@H](NC(=O)[C@](C)(Cc1ccccc1)NC(=O)[C@H](CO)NC(=O)CNC(=O)[C@H](CCC(=O)O)NC(=O)C(C)(C)NC(=O)[C@@H](N)Cc1c[nH]cn1)[C@@H](C)O)C(C)C)C(=O)N[C@@H](C)C(=O)N[C@@](C)(Cc1ccccc1)C(=O)N[C@H](C(=O)N[C@H](C(=O)N[C@@](C)(CCCCN)C(=O)NCC(=O)NCC(N)=O)C(C)C)C(C)C)", "note": "[SEQ ID NO 7]", "values": [
      {"measurement": "Primary assay EC50 (cAMP), Mean pM GLP-1R", "setting": "GLP-1 receptor", "value": 389, "unit": "pM"},
      {"measurement": "Primary assay EC50 (cAMP), n1", "setting": "GLP-1 receptor", "value": 0.35, "unit": "nM"},
      {"measurement": "Primary assay EC50 (cAMP), n2", "setting": "GLP-1 receptor", "value": 0.43, "unit": "nM"},
      {"measurement": "Primary assay EC50 (cAMP), n1", "setting": "glucagon receptor", "value": 100, "unit": "nM"},
      {"measurement": "Primary assay EC50 (cAMP), n2", "setting": "glucagon receptor", "value": 100, "unit": "nM"},
      {"measurement": "Primary assay EC50 (cAMP), n1", "setting": "[1]", "value": 100, "unit": "nM"},
      {"measurement": "Primary assay EC50 (cAMP), n2", "setting": "[1]", "value": 100, "unit": "nM"}
    ]},
    {"binder": "H[Aib]EGS[αMeF]TSDV[αMeS]S[αMeF]LEGEAAK([PEG2′-PEG2′-γGlu-Stearoyl])E[αMeF]IAWVV[αMeK]GG-NH2", "note": "[SEQ ID NO 49]", "values": [
      {"measurement": "Primary assay EC50 (cAMP), Mean pM GLP-1R", "setting": "GLP-1 receptor", "value": 124, "unit": "pM"},
      {"measurement": "Primary assay EC50 (cAMP), n1", "setting": "GLP-1 receptor", "value": 0.096, "unit": "nM"},
      {"measurement": "Primary assay EC50 (cAMP), n2", "setting": "GLP-1 receptor", "value": 0.15, "unit": "nM"},
      {"measurement": "Primary assay EC50 (cAMP), n1", "setting": "glucagon receptor", "value": 25, "unit": "nM"},
      {"measurement": "Primary assay EC50 (cAMP), n2", "setting": "glucagon receptor", "value": 25, "unit": "nM"},
      {"measurement": "Primary assay EC50 (cAMP), n1", "setting": "[1]", "value": 25, "unit": "nM"},
      {"measurement": "Primary assay EC50 (cAMP), n2", "setting": "[1]", "value": 25, "unit": "nM"}
    ]},
    {"binder": "H[Aib]EGS[αMeF]TSDV[αMeS]SYLEGEAAK([PEG2′-PEG2′-γGlu-Stearoyl])E[αMeF]IA[αMeF]VV[αMeK]GG-NH2", "note": "[SEQ ID NO 47]", "values": [
      {"measurement": "Primary assay EC50 (cAMP), Mean pM GLP-1R", "setting": "GLP-1 receptor", "value": 43.3, "unit": "pM"},
      {"measurement": "Primary assay EC50 (cAMP), n1", "setting": "GLP-1 receptor", "value": 0.037, "unit": "nM"},
      {"measurement": "Primary assay EC50 (cAMP), n2", "setting": "GLP-1 receptor", "value": 0.05, "unit": "nM"},
      {"measurement": "Primary assay EC50 (cAMP), n1", "setting": "glucagon receptor", "value": 25, "unit": "nM"},
      {"measurement": "Primary assay EC50 (cAMP), n2", "setting": "glucagon receptor", "value": 25, "unit": "nM"},
      {"measurement": "Primary assay EC50 (cAMP), n1", "setting": "[1]", "value": 25, "unit": "nM"},
      {"measurement": "Primary assay EC50 (cAMP), n2", "setting": "[1]", "value": 25, "unit": "nM"}
    ]},
    {"binder": "H[Aib]EGS[αMeF]TSDV[αMeS]S[αMeF]LEGEAAK([PEG2′-PEG2′-γGlu-Stearoyl])EFIA[αMeF]VV[αMeK]GG-NH2", "note": "[SEQ ID NO 48]", "values": [
      {"measurement": "Primary assay EC50 (cAMP), Mean pM GLP-1R", "setting": "GLP-1 receptor", "value": 6.1, "unit": "pM"},
      {"measurement": "Primary assay EC50 (cAMP), n1", "setting": "GLP-1 receptor", "value": 0.0039, "unit": "nM"},
      {"measurement": "Primary assay EC50 (cAMP), n2", "setting": "GLP-1 receptor", "value": 0.0082, "unit": "nM"},
      {"measurement": "Primary assay EC50 (cAMP), n1", "setting": "glucagon receptor", "value": 26, "unit": "nM"},
      {"measurement": "Primary assay EC50 (cAMP), n2", "setting": "glucagon receptor", "value": 26, "unit": "nM"},
      {"measurement": "Primary assay EC50 (cAMP), n1", "setting": "[1]", "value": 26, "unit": "nM"},
      {"measurement": "Primary assay EC50 (cAMP), n2", "setting": "[1]", "value": 26, "unit": "nM"}
    ]}
  ]
}
